According to patent publication US20080249606A1:

Molecular target: endostatin incubated overnight with DXS500k (human) (UniProt P39060)
Experiment: ELISA, protein/DXS500k mixture immobilized on Greiner Microlon plate, tPA in 10 mM εACA, detection with antibody 374b

Chain of endostatin incubated overnight with DXS500k (human) (P39060 1572-1754): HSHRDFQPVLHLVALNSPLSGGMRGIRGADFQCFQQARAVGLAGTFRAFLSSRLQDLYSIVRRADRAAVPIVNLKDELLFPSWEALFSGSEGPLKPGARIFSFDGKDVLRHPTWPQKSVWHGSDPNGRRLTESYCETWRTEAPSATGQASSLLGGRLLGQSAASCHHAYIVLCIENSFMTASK
Chain of tissue-type plasminogen activator (tPA, Actilyse, Boehringer-Ingelheim) (P00750 36-562 limits assumed): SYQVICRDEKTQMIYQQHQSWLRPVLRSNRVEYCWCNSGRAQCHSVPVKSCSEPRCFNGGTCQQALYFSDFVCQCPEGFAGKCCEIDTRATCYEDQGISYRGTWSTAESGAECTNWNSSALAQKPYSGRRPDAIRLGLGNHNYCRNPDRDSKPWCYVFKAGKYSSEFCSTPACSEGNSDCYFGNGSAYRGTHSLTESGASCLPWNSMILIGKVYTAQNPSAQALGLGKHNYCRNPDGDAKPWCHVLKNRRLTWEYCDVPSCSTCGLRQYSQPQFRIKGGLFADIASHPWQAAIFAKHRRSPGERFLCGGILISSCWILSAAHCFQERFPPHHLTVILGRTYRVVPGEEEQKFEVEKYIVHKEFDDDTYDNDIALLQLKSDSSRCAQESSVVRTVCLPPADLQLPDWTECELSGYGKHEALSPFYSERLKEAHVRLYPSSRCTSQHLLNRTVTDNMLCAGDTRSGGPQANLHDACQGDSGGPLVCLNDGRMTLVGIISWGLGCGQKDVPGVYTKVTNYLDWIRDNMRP

tissue-type plasminogen activator (tPA, Actilyse, Boehringer-Ingelheim) (from UniProt P00750 36-562) (enzyme)
factor of increase of tPA binding against the protein incubated with buffer only: 10.5 fold
